Measured values as given in US20250340902A1, “GENE THERAPY FOR BVES-RELATED DISORDERS” (OHIO STATE INNOVATION FOUNDATION, priority 2022, published 2025).

Tests used:
[1] = molecular target: Annexin A6 (Mus musculus) (UniProt P14824); experiment: anti-HA co-IP from muscle, MS; CTRL 5
[2] = molecular target: Striated muscle-specific serine/threonine-protein kinase (Mus musculus) (UniProt Q62407); experiment: anti-HA co-IP from muscle, MS; CTRL 5
[3] = molecular target: Phosphorylase b kinase regulatory subunit alpha, skeletal muscle isoform (Mus musculus) (UniProt P18826); experiment: anti-HA co-IP from muscle, MS; CTRL 5
Biglycan (Mus musculus) = Biglycan (Mus musculus) (UniProt P28653); experiment: anti-HA co-IP from muscle, MS; CTRL 5
[4] = molecular target: Spectrin beta chain, non-erythrocytic 1 (Mus musculus) (UniProt Q62261); experiment: anti-HA co-IP from muscle, MS; CTRL 5
[5] = molecular target: Spectrin alpha chain, non-erythrocytic 1 (Mus musculus) (UniProt P16546); experiment: anti-HA co-IP from muscle, MS; CTRL 5
[6] = molecular target: Eukaryotic translation initiation factor 5B (Mus musculus) (UniProt Q05D44); experiment: anti-HA co-IP from muscle, MS; CTRL 5
[7] = molecular target: Dystrophin (Mus musculus) (UniProt P11531); experiment: anti-HA co-IP from muscle, MS; CTRL 6
[8] = molecular target: Sodium/potassium-transporting ATPase subunit alpha-2 (Mus musculus) (UniProt Q6PIE5); experiment: anti-HA co-IP from muscle, MS; CTRL 6
[9] = molecular target: Tubulin alpha-1B chain (Mus musculus) (UniProt P05213); experiment: anti-HA co-IP from muscle, MS; CTRL 0
[10] = molecular target: Translocation protein SEC62 (Mus musculus) (UniProt Q8BU14); experiment: anti-HA co-IP from muscle, MS; CTRL 0
[11] = molecular target: Nucleolar and coiled-body phosphoprotein 1 (Mus musculus) (UniProt E9Q5C9); experiment: anti-HA co-IP from muscle, MS; CTRL 0
[12] = molecular target: GTP-binding protein SAR1b (Mus musculus) (UniProt Q9CQC9); experiment: anti-HA co-IP from muscle, MS; CTRL 0
GTP-binding protein SAR1b (Mus musculus), sequence (Q9CQC9 whole entry): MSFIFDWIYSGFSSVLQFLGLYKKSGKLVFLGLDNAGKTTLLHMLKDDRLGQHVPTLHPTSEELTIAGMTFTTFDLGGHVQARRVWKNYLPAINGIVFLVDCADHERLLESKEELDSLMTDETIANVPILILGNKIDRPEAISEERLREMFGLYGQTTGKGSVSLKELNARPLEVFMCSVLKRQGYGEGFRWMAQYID

[13] = molecular target: NEDD8-conjugating enzyme Ubc12 (Mus musculus) (UniProt P61082); experiment: anti-HA co-IP from muscle, MS; CTRL 0
Elongin-A (Mus musculus) = Elongin-A (Mus musculus) (UniProt Q8CB77); experiment: anti-HA co-IP from muscle, MS; CTRL 0
Elongin-A (Mus musculus), sequence (Q8CB77 whole entry, the tested form may be a part): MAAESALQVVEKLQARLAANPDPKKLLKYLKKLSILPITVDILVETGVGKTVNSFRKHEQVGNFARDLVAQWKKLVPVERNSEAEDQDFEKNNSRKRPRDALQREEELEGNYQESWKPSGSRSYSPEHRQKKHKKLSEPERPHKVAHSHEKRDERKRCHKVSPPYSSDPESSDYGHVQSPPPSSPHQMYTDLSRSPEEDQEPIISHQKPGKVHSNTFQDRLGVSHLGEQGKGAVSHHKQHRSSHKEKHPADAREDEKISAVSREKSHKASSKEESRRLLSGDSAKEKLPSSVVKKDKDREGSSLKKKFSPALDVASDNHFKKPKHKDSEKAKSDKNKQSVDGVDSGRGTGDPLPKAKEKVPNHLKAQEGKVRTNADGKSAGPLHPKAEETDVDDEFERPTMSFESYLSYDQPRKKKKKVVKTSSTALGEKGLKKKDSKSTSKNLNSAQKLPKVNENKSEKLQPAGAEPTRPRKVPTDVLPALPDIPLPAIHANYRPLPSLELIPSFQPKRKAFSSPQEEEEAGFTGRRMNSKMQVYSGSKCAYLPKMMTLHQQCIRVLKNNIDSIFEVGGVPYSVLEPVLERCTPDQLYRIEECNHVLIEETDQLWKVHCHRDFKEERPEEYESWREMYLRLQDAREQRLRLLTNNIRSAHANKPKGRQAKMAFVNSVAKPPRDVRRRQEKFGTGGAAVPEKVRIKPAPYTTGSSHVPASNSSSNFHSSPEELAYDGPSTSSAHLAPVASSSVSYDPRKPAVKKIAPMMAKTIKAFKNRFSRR

[14] = molecular target: Haloacid dehalogenase-like hydrolase domain-containing protein 2 (Mus musculus) (UniProt Q3UGR5); experiment: anti-HA co-IP from muscle, MS; CTRL 0
[15] = molecular target: Vitamin K-dependent protein C (Mus musculus) (UniProt P33587); experiment: anti-HA co-IP from muscle, MS; CTRL 0
[16] = molecular target: Nucleolar protein 12 (Mus musculus) (UniProt Q8BG17); experiment: anti-HA co-IP from muscle, MS; CTRL 0
[17] = molecular target: Indolethylamine N-methyltransferase (Mus musculus) (UniProt P40936); experiment: anti-HA co-IP from muscle, MS; CTRL 0
[18] = molecular target: Tetraspanin-8 (Mus musculus) (UniProt Q8R3G9); experiment: anti-HA co-IP from muscle, MS; CTRL 0
[19] = molecular target: Leucine-rich PPR motif-containing protein, mitochondrial (Mus musculus) (UniProt Q6PB66); experiment: anti-HA co-IP from muscle, MS; CTRL 0
[20] = molecular target: Anoctamin-5 (Mus musculus) (UniProt Q75UR0); experiment: anti-HA co-IP from muscle, MS; CTRL 0
[21] = molecular target: Calcium/calmodulin-dependent protein kinase type II subunit gamma (Mus musculus) (UniProt Q923T9); experiment: anti-HA co-IP from muscle, MS; CTRL 0
[22] = molecular target: Bifunctional purine biosynthesis protein ATIC (Mus musculus) (UniProt Q9CWJ9); experiment: anti-HA co-IP from muscle, MS; CTRL 0
[23] = molecular target: Platelet glycoprotein 4 (Mus musculus) (UniProt Q08857); experiment: anti-HA co-IP from muscle, MS; CTRL 0
[24] = molecular target: SUN domain-containing protein 2 (Mus musculus) (UniProt Q8BJS4); experiment: anti-HA co-IP from muscle, MS; CTRL 0
SUN domain-containing protein 2 (Mus musculus), sequence (Q8BJS4 whole entry, the tested form may be a part): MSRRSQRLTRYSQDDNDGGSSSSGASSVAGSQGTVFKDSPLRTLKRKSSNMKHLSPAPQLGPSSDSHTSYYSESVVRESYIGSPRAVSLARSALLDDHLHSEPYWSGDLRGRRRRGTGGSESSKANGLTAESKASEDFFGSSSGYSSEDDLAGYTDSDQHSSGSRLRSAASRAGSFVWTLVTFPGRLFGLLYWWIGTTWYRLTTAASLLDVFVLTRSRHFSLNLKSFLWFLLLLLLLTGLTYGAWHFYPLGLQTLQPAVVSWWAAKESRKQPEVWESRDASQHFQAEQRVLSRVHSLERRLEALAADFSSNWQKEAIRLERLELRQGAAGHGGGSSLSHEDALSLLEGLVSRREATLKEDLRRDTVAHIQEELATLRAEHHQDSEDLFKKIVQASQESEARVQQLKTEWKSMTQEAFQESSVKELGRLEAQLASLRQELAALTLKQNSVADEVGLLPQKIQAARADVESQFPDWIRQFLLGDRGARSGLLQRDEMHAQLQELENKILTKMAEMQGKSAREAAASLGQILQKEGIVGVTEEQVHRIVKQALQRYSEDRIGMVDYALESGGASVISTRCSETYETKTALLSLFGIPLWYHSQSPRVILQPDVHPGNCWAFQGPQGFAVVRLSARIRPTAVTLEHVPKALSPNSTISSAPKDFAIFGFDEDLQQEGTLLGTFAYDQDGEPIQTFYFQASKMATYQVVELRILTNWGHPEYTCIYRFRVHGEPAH

[25] = molecular target: Keratin, type II cytoskeletal 7 (Mus musculus) (UniProt Q9DCV7); experiment: anti-HA co-IP from muscle, MS; CTRL 0
[26] = molecular target: Solute carrier family 12 member 2 (Mus musculus) (UniProt P55012); experiment: anti-HA co-IP from muscle, MS; CTRL 0
[27] = molecular target: Triggering receptor expressed on myeloid cells 2 (Mus musculus) (UniProt Q99NH8); experiment: anti-HA co-IP from muscle, MS; CTRL 0
[28] = molecular target: Extended synaptotagmin-2 (Mus musculus) (UniProt Q3TZZ7); experiment: anti-HA co-IP from muscle, MS; CTRL 0
[29] = molecular target: Barrier-to-autointegration factor (Mus musculus) (UniProt O54962); experiment: anti-HA co-IP from muscle, MS; CTRL 0
Barrier-to-autointegration factor (Mus musculus), sequence (O54962 whole entry): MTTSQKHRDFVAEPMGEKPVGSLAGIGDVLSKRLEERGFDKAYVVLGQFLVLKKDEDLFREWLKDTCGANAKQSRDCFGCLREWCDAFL

[30] = molecular target: F-box only protein 40 (Mus musculus) (UniProt P62932); experiment: anti-HA co-IP from muscle, MS; CTRL 0
[31] = molecular target: Transcriptional regulator ATRX (Mus musculus) (UniProt Q61687); experiment: anti-HA co-IP from muscle, MS; CTRL 0
Nidogen-2 (Mus musculus) = Nidogen-2 (Mus musculus) (UniProt O88322); experiment: anti-HA co-IP from muscle, MS; CTRL 3
[32] = molecular target: Cytoplasmic dynein 1 heavy chain 1 (Mus musculus) (UniProt Q9JHU4); experiment: anti-HA co-IP from muscle, MS; CTRL 3
[33] = molecular target: Myosin light chain kinase 2, skeletal/cardiac muscle (Mus musculus) (UniProt Q8VCR8); experiment: anti-HA co-IP from muscle, MS; CTRL 3
[34] = molecular target: 3-ketoacyl-CoA thiolase, mitochondrial (Mus musculus) (UniProt Q8BWT1); experiment: anti-HA co-IP from muscle, MS; CTRL 3
[35] = molecular target: Perilipin-4 (Mus musculus) (UniProt O88492); experiment: anti-HA co-IP from muscle, MS; CTRL 3
[36] = molecular target: Transcription elongation factor A protein 3 (Mus musculus) (UniProt P23881); experiment: anti-HA co-IP from muscle, MS; CTRL 3

Striated muscle-specific serine/threonine-protein kinase (Mus musculus), sequence (Q62407 whole entry, canonical isoform): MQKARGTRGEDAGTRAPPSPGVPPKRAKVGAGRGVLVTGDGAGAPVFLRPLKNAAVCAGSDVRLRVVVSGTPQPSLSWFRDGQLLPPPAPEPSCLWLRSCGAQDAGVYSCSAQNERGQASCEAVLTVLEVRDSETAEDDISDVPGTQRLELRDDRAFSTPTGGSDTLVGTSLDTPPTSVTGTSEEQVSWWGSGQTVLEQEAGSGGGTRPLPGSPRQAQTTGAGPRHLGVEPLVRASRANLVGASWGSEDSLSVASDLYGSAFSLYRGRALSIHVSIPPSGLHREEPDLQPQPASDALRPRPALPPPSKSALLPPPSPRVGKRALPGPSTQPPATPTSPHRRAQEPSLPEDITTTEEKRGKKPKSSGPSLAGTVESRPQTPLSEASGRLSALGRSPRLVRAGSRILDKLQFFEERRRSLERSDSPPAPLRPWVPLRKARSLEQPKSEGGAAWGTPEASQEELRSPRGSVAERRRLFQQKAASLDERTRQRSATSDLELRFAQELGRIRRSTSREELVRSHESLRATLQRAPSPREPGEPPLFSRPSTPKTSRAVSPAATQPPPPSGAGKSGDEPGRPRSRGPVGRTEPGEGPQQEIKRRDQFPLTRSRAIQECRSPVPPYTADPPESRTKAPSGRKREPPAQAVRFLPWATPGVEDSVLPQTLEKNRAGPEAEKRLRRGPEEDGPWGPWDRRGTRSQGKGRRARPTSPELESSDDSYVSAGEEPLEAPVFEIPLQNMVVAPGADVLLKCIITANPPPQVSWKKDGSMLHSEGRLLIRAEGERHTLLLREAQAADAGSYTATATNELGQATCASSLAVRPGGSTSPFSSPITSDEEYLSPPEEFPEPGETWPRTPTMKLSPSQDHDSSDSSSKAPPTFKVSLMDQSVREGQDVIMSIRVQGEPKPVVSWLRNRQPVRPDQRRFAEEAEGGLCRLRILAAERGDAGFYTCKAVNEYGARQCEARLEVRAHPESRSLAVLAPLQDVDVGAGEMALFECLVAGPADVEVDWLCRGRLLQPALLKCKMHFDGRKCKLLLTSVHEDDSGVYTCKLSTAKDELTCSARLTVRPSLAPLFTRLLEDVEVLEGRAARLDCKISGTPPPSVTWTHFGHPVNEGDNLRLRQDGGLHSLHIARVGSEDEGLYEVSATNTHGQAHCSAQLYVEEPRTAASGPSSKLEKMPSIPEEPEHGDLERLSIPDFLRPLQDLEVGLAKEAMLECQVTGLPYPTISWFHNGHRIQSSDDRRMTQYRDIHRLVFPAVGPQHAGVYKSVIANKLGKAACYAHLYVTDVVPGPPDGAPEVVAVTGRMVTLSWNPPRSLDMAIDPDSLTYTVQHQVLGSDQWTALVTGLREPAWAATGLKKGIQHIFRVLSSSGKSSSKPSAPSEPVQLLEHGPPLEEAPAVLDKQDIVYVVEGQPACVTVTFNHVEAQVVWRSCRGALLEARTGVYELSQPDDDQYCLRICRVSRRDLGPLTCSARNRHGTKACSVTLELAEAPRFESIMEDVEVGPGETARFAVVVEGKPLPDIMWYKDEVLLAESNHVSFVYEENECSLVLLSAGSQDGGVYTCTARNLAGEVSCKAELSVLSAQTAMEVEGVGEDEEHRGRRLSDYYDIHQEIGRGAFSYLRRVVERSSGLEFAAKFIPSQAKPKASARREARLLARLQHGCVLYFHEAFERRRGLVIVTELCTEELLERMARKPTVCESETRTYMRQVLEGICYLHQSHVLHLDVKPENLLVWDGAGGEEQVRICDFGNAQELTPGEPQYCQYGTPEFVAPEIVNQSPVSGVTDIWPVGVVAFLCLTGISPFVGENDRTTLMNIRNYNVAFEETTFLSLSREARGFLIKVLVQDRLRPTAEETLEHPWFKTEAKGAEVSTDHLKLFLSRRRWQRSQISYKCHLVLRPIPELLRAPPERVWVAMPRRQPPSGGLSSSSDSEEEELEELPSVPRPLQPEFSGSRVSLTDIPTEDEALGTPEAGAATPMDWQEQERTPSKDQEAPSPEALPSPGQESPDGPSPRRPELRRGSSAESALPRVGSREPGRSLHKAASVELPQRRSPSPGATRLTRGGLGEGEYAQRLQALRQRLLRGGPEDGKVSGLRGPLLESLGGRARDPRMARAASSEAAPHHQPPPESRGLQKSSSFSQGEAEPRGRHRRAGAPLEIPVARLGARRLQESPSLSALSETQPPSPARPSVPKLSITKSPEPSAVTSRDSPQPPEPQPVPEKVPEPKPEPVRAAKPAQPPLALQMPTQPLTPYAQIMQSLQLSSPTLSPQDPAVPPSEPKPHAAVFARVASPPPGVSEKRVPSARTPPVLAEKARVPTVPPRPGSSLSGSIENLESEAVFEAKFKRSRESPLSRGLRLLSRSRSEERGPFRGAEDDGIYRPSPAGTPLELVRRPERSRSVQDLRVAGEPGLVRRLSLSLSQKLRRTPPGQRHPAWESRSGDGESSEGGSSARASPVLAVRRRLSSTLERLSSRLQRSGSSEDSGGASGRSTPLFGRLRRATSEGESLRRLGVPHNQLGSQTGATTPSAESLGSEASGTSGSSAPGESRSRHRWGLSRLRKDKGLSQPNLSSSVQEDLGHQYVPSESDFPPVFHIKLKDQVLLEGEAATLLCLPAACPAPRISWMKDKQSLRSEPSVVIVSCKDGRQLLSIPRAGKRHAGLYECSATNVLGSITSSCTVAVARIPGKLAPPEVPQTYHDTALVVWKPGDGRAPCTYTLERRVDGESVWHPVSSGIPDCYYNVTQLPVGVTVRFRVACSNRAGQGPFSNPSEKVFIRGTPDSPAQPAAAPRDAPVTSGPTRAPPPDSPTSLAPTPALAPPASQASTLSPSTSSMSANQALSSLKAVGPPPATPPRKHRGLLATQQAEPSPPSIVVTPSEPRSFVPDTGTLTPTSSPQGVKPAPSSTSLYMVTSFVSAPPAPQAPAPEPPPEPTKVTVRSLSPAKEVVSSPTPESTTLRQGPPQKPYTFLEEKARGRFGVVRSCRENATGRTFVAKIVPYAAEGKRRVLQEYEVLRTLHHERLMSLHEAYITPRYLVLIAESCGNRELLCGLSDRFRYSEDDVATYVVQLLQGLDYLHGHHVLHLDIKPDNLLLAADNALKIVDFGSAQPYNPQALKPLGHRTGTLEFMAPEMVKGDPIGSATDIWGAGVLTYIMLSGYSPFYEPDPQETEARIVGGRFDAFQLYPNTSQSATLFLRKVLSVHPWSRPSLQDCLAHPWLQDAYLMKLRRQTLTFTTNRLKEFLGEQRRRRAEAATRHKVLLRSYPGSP

## human BVES fused with 3xHA tag (from UniProt Q8NE79 1-360)
[1]
  AAV9-BVES-HA (IP-MS count): 17
[2]
  AAV9-BVES-HA (IP-MS count): 16
[3]
  AAV9-BVES-HA (IP-MS count): 23
Biglycan (Mus musculus)
  AAV9-BVES-HA (IP-MS count): 16
[4]
  AAV9-BVES-HA (IP-MS count): 19
[5]
  AAV9-BVES-HA (IP-MS count): 24
[6]
  AAV9-BVES-HA (IP-MS count): 14
[7]
  AAV9-BVES-HA (IP-MS count): 77
[8]
  AAV9-BVES-HA (IP-MS count): 41
[9]
  AAV9-BVES-HA (IP-MS count): 13
[10]
  AAV9-BVES-HA (IP-MS count): 2
[11]
  AAV9-BVES-HA (IP-MS count): 3
[12]
  AAV9-BVES-HA (IP-MS count): 3
[13]
  AAV9-BVES-HA (IP-MS count): 2
Elongin-A (Mus musculus)
  AAV9-BVES-HA (IP-MS count): 3
[14]
  AAV9-BVES-HA (IP-MS count): 3
[15]
  AAV9-BVES-HA (IP-MS count): 2
[16]
  AAV9-BVES-HA (IP-MS count): 2
[17]
  AAV9-BVES-HA (IP-MS count): 2
[18]
  AAV9-BVES-HA (IP-MS count): 2
[19]
  AAV9-BVES-HA (IP-MS count): 8
[20]
  AAV9-BVES-HA (IP-MS count): 2
[21]
  AAV9-BVES-HA (IP-MS count): 13
[22]
  AAV9-BVES-HA (IP-MS count): 3
[23]
  AAV9-BVES-HA (IP-MS count): 2
[24]
  AAV9-BVES-HA (IP-MS count): 14
[25]
  AAV9-BVES-HA (IP-MS count): 17
[26]
  AAV9-BVES-HA (IP-MS count): 3
[27]
  AAV9-BVES-HA (IP-MS count): 2
[28]
  AAV9-BVES-HA (IP-MS count): 2
[29]
  AAV9-BVES-HA (IP-MS count): 3
[30]
  AAV9-BVES-HA (IP-MS count): 2
[31]
  AAV9-BVES-HA (IP-MS count): 6
Nidogen-2 (Mus musculus)
  AAV9-BVES-HA (IP-MS count): 12
[32]
  AAV9-BVES-HA (IP-MS count): 12
[33]
  AAV9-BVES-HA (IP-MS count): 9
[34]
  AAV9-BVES-HA (IP-MS count): 9
[35]
  AAV9-BVES-HA (IP-MS count): 11
[36]
  AAV9-BVES-HA (IP-MS count): 12
